Test results: paper PMC7790537 (PLoS ONE, 2021)

B1: F11 IgA1 polymer (antibody, V domains shown)
VH: QVQLVQSGAEVKRPGSSVRVSCRTSGGSFTSFAISWVRQAPGQGLEWMGRITRILGVPNYAQKFQGRVTITADMPTTTAYLDLTNLRSEDTAVYYCARDSGTSHGDFDYWGQGTLVTVSS
VL: EIVLTQSPVTLSLSPGERATLSCRASQNVINSLVWYQQKPGQAPRLLIYGASNRATGIPARFRGSGSGTDFTLTIDSLEPEDIAVYYCQQRGTWLWSFGQGTKVEIK
B2: F11 IgA2m2 polymer (antibody, V domains shown)
VH: B1 VH
VL: B1 VL
B3: F11 IgA1 monomer (antibody, V domains shown)
VH: B1 VH
VL: B1 VL
B4: F11 IgA2m2 monomer (antibody, V domains shown)
VH: B1 VH
VL: B1 VL

biological target: recombinant trimeric HA of A/New Caledonia/20/1999 (H1N1) (Influenza A virus A/New …, UniProt Q6WG00); assay: cell-based or functional assay

How did the “HI activity, minimum HI concentration, NC20 virus” value (shortened to “HI activity”) turn out when B1 was run?
Its value is 62.5 µg/mL.

What about the “NI activity, EC50 (NI-ELLA), NC20 virus” value of the same binder?
The value was 0.106 µg/mL.

What about the “NT activity, minimum virus-neutralizing concentration, NC20 virus” value of the same binder?
Its value is 15.8 µg/mL.

What does the source list for B2?
NI activity, EC50 (NI-ELLA), NC20 virus: 0.0162 µg/mL; NT activity, minimum virus-neutralizing concentration, NC20 virus: 5.57 µg/mL

For B3, which “HI activity” value is on record?
Its value is 62.5 µg/mL.

What about the “NI activity, EC50 (NI-ELLA), NC20 virus” value of the same binder?
The value was 0.148 µg/mL.

What about the “NT activity, minimum virus-neutralizing concentration, NC20 virus” value of the same binder?
Its value is 28.1 µg/mL.

With B4 as the binder, how does the “HI activity” value read?
The value was 31.3 µg/mL.

And the “NI activity, EC50 (NI-ELLA), NC20 virus” value?
The value was 0.0617 µg/mL.
